Experimental data reported in US20120231467A1.

Target: Toxin B, native full-length (270 kDa) (Clostridium difficile) (UniProt P18177)
Assay: filter
Details: 2NapdU at every N (replaces all dT)

Chain of UniProt P18177 (P18177 2-2366): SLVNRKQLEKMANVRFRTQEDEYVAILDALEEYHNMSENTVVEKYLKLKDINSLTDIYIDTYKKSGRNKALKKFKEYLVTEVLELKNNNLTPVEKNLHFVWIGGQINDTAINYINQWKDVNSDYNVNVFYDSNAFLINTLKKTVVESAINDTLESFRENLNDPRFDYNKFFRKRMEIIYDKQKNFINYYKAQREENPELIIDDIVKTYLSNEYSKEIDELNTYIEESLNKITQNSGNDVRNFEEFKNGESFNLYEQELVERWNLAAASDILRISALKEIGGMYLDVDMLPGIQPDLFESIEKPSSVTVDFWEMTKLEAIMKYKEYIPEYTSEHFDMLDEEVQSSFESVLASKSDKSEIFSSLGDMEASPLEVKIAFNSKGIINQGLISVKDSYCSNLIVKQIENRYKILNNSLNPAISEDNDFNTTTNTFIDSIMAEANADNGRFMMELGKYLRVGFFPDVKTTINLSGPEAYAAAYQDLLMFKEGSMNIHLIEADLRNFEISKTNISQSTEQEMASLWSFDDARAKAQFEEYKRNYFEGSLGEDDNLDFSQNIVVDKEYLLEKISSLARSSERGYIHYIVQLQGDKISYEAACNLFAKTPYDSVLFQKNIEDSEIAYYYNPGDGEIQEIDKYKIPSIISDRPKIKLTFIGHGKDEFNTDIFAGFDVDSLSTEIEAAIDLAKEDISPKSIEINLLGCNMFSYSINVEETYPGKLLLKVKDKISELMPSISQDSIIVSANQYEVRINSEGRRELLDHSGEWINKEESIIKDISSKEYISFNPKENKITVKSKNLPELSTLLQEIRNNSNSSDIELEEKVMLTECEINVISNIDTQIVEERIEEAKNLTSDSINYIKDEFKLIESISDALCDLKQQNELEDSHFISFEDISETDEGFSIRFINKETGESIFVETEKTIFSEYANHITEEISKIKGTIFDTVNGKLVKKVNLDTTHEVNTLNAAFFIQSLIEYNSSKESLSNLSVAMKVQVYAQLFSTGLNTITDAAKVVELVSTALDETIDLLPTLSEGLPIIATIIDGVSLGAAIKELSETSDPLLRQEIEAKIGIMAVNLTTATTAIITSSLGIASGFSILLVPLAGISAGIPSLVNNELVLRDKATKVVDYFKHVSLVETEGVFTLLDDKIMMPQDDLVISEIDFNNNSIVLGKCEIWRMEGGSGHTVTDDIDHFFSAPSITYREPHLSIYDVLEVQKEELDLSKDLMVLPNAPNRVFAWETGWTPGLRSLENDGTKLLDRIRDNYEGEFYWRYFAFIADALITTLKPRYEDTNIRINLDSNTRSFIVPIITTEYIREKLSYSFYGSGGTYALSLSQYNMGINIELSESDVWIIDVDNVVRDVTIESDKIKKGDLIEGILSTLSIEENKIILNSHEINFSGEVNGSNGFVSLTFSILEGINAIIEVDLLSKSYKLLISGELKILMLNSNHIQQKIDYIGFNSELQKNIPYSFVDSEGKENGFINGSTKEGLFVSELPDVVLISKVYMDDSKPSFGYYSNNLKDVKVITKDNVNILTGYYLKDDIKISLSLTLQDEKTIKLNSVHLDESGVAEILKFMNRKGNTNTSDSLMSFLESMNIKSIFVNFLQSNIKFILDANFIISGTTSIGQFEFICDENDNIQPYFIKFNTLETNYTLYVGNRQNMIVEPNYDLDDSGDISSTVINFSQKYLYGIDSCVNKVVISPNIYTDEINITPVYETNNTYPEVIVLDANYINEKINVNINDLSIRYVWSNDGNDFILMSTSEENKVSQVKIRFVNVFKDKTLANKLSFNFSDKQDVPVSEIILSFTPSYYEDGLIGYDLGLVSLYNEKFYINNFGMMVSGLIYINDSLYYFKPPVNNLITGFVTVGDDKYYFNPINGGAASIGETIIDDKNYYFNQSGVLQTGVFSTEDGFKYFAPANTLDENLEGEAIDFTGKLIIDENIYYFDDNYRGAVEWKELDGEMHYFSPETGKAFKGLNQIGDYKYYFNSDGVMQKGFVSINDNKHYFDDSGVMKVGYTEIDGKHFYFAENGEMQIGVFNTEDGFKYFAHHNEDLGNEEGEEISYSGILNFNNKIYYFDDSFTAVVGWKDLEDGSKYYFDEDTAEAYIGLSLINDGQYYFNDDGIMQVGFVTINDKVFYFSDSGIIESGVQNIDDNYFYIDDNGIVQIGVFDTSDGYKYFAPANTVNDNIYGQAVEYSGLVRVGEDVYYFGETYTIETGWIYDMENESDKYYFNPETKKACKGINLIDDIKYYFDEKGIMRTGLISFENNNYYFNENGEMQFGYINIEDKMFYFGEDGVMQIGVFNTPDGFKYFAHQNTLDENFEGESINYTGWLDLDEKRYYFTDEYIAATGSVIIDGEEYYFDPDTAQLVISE

CNNNNNNACCGCNGCANGACNNNAGCGGCAGNCGNGNGNG [5566-77]
Kd: 0.23 nM
